Source: the supplement of paper PMC9112550, “Optimization of the antimicrobial peptide Bac7 by deep mutational scanning” (BMC Biology, 2022)

What follows are sequences tested on Escherichia coli TOP10 (assay: shrunken log2 fold change of peptide-encoding DNA abundance (4.5 h post-induction vs induction); higher = less antimicrobial activity (less host growth inhibition)). Conditions: time post-induction: 4.5 h; library: site-saturation at positions 5, 18, 19, 20.
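Note: peptides expressed intracellularly from a pBAD plasmid library in pooled LB shake-flask culture, induced with 0.3% L-arabinose, DNA abundance read by NGS, three biological replicates, DESeq2 with apeglm shrinkage.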

RRIRPRPPRLPRPRPRPANAPRP and RRIRDRPPRLPRPRPRPADAPRP are within 0.2 log units of each other in “shrunken log2 fold change” value: 0.0662 for the first, 0.196 for the second.

Compared with RRIRARPPRLPRPRPRPHVHPRP, RRIRKRPPRLPRPRPRPIEWPRP is higher in “shrunken log2 fold change” value: -0.192 for the first, 0.404 for the second.

RRIRRRPPRLPRPRPRPMLLPRP and RRIRIRPPRLPRPRPRPVVLPRP are within 0.2 log units of each other in “shrunken log2 fold change” value: -0.0984 for the first, -0.21 for the second.

Going from RRIRFRPPRLPRPRPRPSWIPRP to RRIRQRPPRLPRPRPRPLEEPRP, the “shrunken log2 fold change” value rises from -0.177 to 0.275.

RRIRFRPPRLPRPRPRPFHSPRP and RRIRTRPPRLPRPRPRPPLSPRP are within 0.2 log units of each other in “shrunken log2 fold change” value: -0.0346 for the first, -0.0606 for the second.

RRIRARPPRLPRPRPRPMDRPRP and RRIRVRPPRLPRPRPRPRDQPRP are within 0.2 log units of each other in “shrunken log2 fold change” value: 0.108 for the first, -0.0604 for the second.

Going from RRIRSRPPRLPRPRPRPKSNPRP to RRIRARPPRLPRPRPRPLKSPRP, the “shrunken log2 fold change” value rises from -0.347 to 0.012.

Compared with RRIRPRPPRLPRPRPRPIMTPRP, RRIRVRPPRLPRPRPRPVIRPRP is lower in “shrunken log2 fold change” value: 0.0516 for the first, -0.375 for the second.

Compared with RRIRVRPPRLPRPRPRPSKTPRP, RRIRFRPPRLPRPRPRPGEDPRP is higher in “shrunken log2 fold change” value: -0.61 for the first, -0.224 for the second.

RRIRKRPPRLPRPRPRPIYIPRP and RRIRSRPPRLPRPRPRPFPSPRP are within 0.2 log units of each other in “shrunken log2 fold change” value: -0.127 for the first, -0.168 for the second.

Going from RRIRSRPPRLPRPRPRPHQEPRP to RRIRDRPPRLPRPRPRPDFVPRP, the “shrunken log2 fold change” value rises from -0.0261 to 1.35.

RRIRPRPPRLPRPRPRPQNLPRP and RRIRERPPRLPRPRPRPAVNPRP are within 0.2 log units of each other in “shrunken log2 fold change” value: -0.0683 for the first, -0.00945 for the second.

Going from RRIRQRPPRLPRPRPRPAYSPRP to RRIRMRPPRLPRPRPRPVANPRP, the “shrunken log2 fold change” value rises from -0.051 to 0.331.

Going from RRIRCRPPRLPRPRPRPKSSPRP to RRIRARPPRLPRPRPRPPWCPRP, the “shrunken log2 fold change” value rises from 0.122 to 0.373.

Going from RRIRMRPPRLPRPRPRPETYPRP to RRIRERPPRLPRPRPRPGKMPRP, the “shrunken log2 fold change” value falls from 0.451 to 0.0204.

Going from RRIRLRPPRLPRPRPRPPWTPRP to RRIRYRPPRLPRPRPRPDEGPRP, the “shrunken log2 fold change” value falls from 0.411 to -0.226.

Going from RRIRGRPPRLPRPRPRPVIRPRP to RRIRARPPRLPRPRPRPVPGPRP, the “shrunken log2 fold change” value rises from 0.177 to 0.672.

RRIRSRPPRLPRPRPRPNQQPRP and RRIRERPPRLPRPRPRPVAHPRP are within 0.2 log units of each other in “shrunken log2 fold change” value: 0.121 for the first, 0.0475 for the second.

First: RRIRSRPPRLPRPRPRPSNGPRP
Second: RRIRPRPPRLPRPRPRPPNGPRP
The “shrunken log2 fold change” value of the first is lower: -0.0205 for the first, 0.593 for the second.

First: RRIRTRPPRLPRPRPRPWLYPRP
Second: RRIRNRPPRLPRPRPRPLARPRP
The “shrunken log2 fold change” value of the first is lower: -0.161 for the first, 0.107 for the second.

RRIRWRPPRLPRPRPRPFFTPRP and RRIRSRPPRLPRPRPRPEQGPRP are within 0.2 log units of each other in “shrunken log2 fold change” value: -0.0367 for the first, 0.0683 for the second.

RRIRQRPPRLPRPRPRPYMRPRP and RRIRRRPPRLPRPRPRPETFPRP are within 0.2 log units of each other in “shrunken log2 fold change” value: -0.0086 for the first, -0.0525 for the second.

First: RRIRARPPRLPRPRPRPGDRPRP
Second: RRIRPRPPRLPRPRPRPTANPRP
The “shrunken log2 fold change” value of the first is lower: -0.00146 for the first, 0.297 for the second.

First: RRIRHRPPRLPRPRPRPERVPRP
Second: RRIRMRPPRLPRPRPRPTLDPRP
The “shrunken log2 fold change” value of the first is lower: 0.228 for the first, 1.35 for the second.

Going from RRIRNRPPRLPRPRPRPVTPPRP to RRIRERPPRLPRPRPRPFHCPRP, the “shrunken log2 fold change” value falls from 0.0444 to -0.175.

Going from RRIRARPPRLPRPRPRPPKAPRP to RRIRIRPPRLPRPRPRPGIPPRP, the “shrunken log2 fold change” value falls from 0.685 to -0.225.

RRIRKRPPRLPRPRPRPKITPRP and RRIRYRPPRLPRPRPRPIPEPRP are within 0.2 log units of each other in “shrunken log2 fold change” value: 0.0975 for the first, 0.0704 for the second.

First: RRIRRRPPRLPRPRPRPTWMPRP
Second: RRIRNRPPRLPRPRPRPQGEPRP
The “shrunken log2 fold change” value of the first is higher: 0.174 for the first, -0.422 for the second.

RRIRERPPRLPRPRPRPEEDPRP and RRIRFRPPRLPRPRPRPDDKPRP are within 0.2 log units of each other in “shrunken log2 fold change” value: -0.058 for the first, -0.059 for the second.

Compared with RRIRVRPPRLPRPRPRPLWTPRP, RRIRGRPPRLPRPRPRPFMTPRP is higher in “shrunken log2 fold change” value: 0.0846 for the first, 0.837 for the second.
